This is an account of results in the DeepSol protein solubility set.

This data set is described as follows: soluble on expression in E. coli; label from the status in PepcDB or PDB records.
“MSDPSAKPLQEHILIILDDAGRREVLLTETFYTIGRSPRADIRIKSQFVSRIHAVLVRKSSDDVQAAYRIIDGDEDGQSSVNGLMINGKKVQEHIIQTGDEIVMGPQVSVRYEYRRRDQFGTMLEHHHHHH”: the “soluble on expression in E. coli” value is reported as “soluble”.

For the sequence “MSDRATTTASLTFESLYGTHHGWLKSWLTRKLQSAFDADDIAQDTFLRVMVSETLSTIRDPRSFLCTIAKRVMVDLFRRNALEKAYLEMLALMPEGGAPSPEERESQLETLQLLDSMLDGLNGKTREAFLLSQLDGLTYSEIAHKLGVSISSVKKYVAKAVEHCLLFRLEYGL”, the “soluble on expression in E. coli” value is listed as “soluble”.

As for “MSDRHMSSIFPECDHLKQIYDKCFTEFFQKFITPNYRHQYAVNPCERLHDVYKRCVEERLATQRPFEIDLDEIRKEYLNTDDDKLKDRQNNQKTNSENKCSSS”, the “soluble on expression in E. coli” value is on record as “not soluble”.

“MSDSQINSRTTIDEYLSRADWRVNANANQDYSLGGMILNAAGKVTANYWLDQVFSPAASAAHREGSIHIHDLDMLSGYCAGWSLRQLLEEGFGGVPGTISSRPPKHFSSACGQIVNFLGTLQNEWAGAQAFSSFDTYMAPFVRLDNLSYDEIVQDMQEFIFNLNVPSRWGTQTPFTNLTFDWTCPADLKDSVPFIGEEPVDFTYGELQEEMDLINRAFIQVMSAGDADGRPFTFPIPTYNITKDFDWDSPNTEALFTMTAKYGLPYFQNFINSDLDPGMIRSMCCRLQLDLRELLKRGNGLFGSAELTGSIGVVTLNCARLGYLYAGDEQALLGAVDELIELGIDTLERRRDFVATHMRQGLYPYSARWLPSLDNHFSTIGVNGCNEMIRNFTHDAYNLTDPQGHAQVARLLDHINARLVQAQERTGHLFNLEATPAEGTTYRLAKEDLKRYPDMLHAGTPEEPYYTNSSQLPVSHTPDPFEALALQEDLQSKYTGGTVLHLYMGAAMSDGKACAALVRRALTNFHLPYITITPTFSICPDHGYISGEHPECPQCGATTEMWTRVMGYFRPVQSFNTGKKGEFHERTYFAEALI”: the “soluble on expression in E. coli” value is given as “not soluble”.

Take “MSDTANAAVEIGEEALEQKLEELSVQDKTTPSNSEEKMRKRRLPTAERIRLWEEEQKSKTAITTGLQGKVKWYSVLRRYGFISRNDGEKDIFVHQTAIAKSATEKFYLRTLGDDEEVLFDLVEGKNGPEAANVTGPNGDNVIGSRYRHKLLSRFRKNRKPRASVDGEESQSTDAKPQEMSADAEKKKPRKQRKNRNRKSKAQQKGAGDAADSSAVTESSESASDVASPDSKSCSKIITEEAGLSKVDRCDSALGEAGLGAQPIDAQI”: the “soluble on expression in E. coli” value is listed as “soluble”.

For the sequence “MSDVAETVVAQEPEVVEPVEEKPTETGSDDVVVIDEKTSEQNGEKTEETQAEATEEKNETEAEEADKDKAVENGEAKDTNGNDRKRVSSAHEEAPVADAEEDAPLTKKSKVEDEVDVAASGDAPAVAAE”, the “soluble on expression in E. coli” value was “soluble”.

On to “MSDVPDDANAGCPGTGSAGAGKASGCAGCPNQGSCATGQGPPPDADVPKIQDRFSRIKHKILILSGKGGVGKSTLTSNLARALASDPSKQVAILDVDICGPSQPRMMGVEDEEVHNSADGWTPVGIQPNLTLMSIAFLLGDKNDAVIWRGARKNGMIKQFLKDVDWGEVDYLLIDTPPGTSDEHISLVQFLLQAGPLDGALIVSTPQEVSLLDVRKEVSFCVKTKVPILGVVENMARFVCPNCAHTTLLFPTSTGGAEQMCKDSNLELLAQLPLEPALAKALDNGEDFFETNPDSTLAKSFLDLAEKVKAKLV”, for which the “soluble on expression in E. coli” value was “not soluble”.

For the sequence “MSDVSLKLSAKDIYEKDFEKTMARGYRREEVDAFLDDIIADYQKMADMNNEVVKLSEENHKLKKELEELRLRVATSRPQDNKSFSSNNTTTNTSSNNVDILKRISNLEKAVFGK”, the “soluble on expression in E. coli” value is reported as “not soluble”.

As for “MSEAKWLSLLGLAARARQLLTGEEQVVKAVQNGQVTLVILSSDAGIHTKKKLLDKCGSYQIPVKVVGNRQMLGRAIGKHERVVIGVKDAGFSRKLAALIDE”, the “soluble on expression in E. coli” value was “soluble”.

On to “MSEEVWNGNQGILSVYVSKARDLPNLNKLDKQNVMLRLRIAHMTRASNTLHRAGQNPVFHYLEKFDITPEIKPLMYVEVYCDRRKKSPLPIGRCEIDLLNAIRADPKEGYCTWYELKRSGDEFAGTIFIELTFTPKVPRLNRDDLNKEMDRLDSSMAMRPIPPLPTESEYDYVHGSTMRQITPQCVSTSHEDKDEGQPYRNGNVFSMSSKSDTAVLANSNDPIILPPTFSASMGTTSTLETNDTAISNTSNTKFHFANLRKLKEKINIFKNPDSSTNNCQNESNKVDIEALQKAIGVTSLSYDEDDDDDDENDAFYSSSHRVSHNYNQPPLPPIPTRDDMSNYSSSRNTPLVRRDRPSRLDSSSPNSHPHPSGLNSPKLPPLPTTSNSNFNSRKNSMSPTRKRPPPRLS”, for which the “soluble on expression in E. coli” value is listed as “soluble”.

Regarding “MSEFWLISAPGDKENLQALERMNNVTSKSNLSHNTKFAIPDFKVGTLDSLVGLSDELGKLDTFAESLIKRMAQSVVEVMEDSKGKAHETLLANGVDLTSFVTHFEWDMAKYPAKQPLVSVVDTLAKQLAQIETDLKSRTAAYSVLKANLENLEKRSTGNLFTRTLSDIVSKEDFVLDSEYLITLLVIVPKSSFAQWQKTYESLSDMVVPRSTKLIAEDNEGGLFTVTLFRKVIEDFKVKAKENKFIVREFYYDEKEIKREREEMTRLLSDKKQQYPTSCVALKKGSATYRDHKVKVAPLGNPARPAAGQTDRDRESEGEGEGPLLRWLKVNFSEAFIAWIHIKALRVFVESVLRYGLPVNFQAVLLQPHKKSATKRLREVLNSVFRHLDEVAAASILDASVEIPGLQLSNQDYFPYVYFHIDLSLLD”, the “soluble on expression in E. coli” value is “soluble”.

In the case of “MSEIAMHVTAKPSSFQCNLKCDYCFYLEKESQFTHEKWMDDSTLKEFIKQYIAASGNQVYFTWQGGEPTLAGLDFFRKVIHYQQRYAGQKRIFNALQTNGILLNNEWCAFLKEHEFLVGISIDGPQELHDRYRRSNSGNGTFAKVIAAIERLKSYQVEFNTLTVINNVNVHYPLEVYHFLKSIGSKHMQFIELLETGTPNIDFSGHSENTFRIIDFSVPPTAYGKFMSTIFMQWVKNDVGEIFIRQFESFVSRFLGNGHTSCIFQESCKDNLVVESNGDIYECDHFVYPQYKLGNINKSELKTMNSVQLTAQKKRISAKCQQCAYKPICNGGCPKHRITKVNDETVSYFCEGYKILFSTMVPYMNAMVELAKNRVPLYHIMDVAKQMENN”, the “soluble on expression in E. coli” value is “not soluble”.

As for “MSEIIVYTQNDCPPCTFVKNYLNEHQIDFEERNINNQQYRNEMIDFDAFSTPFILLNGNPMYHVDLDEINKVLNIQD”, the “soluble on expression in E. coli” value is on record as “not soluble”.

In the case of “MSEIKLNYHKTHFLTSAPNIRSIPEDTGIEIAFAGRSNAGKSTALNALTNQKNLARTSKTPGRTQLINLFEVEPNCKLVDLPGYGYAAVPEQMKIQWQKSLGEYLQKRECLAGLVVLMDIRHPLKDLDQQMIEWAVSANLPVLLLLTKADKLSQSARSKQVKMVREAILPFQGDIQVEAFSAQNKIGIDKLAVKLDFWFSPLFAE”, the “soluble on expression in E. coli” value is listed as “not soluble”.

As for “MSEKEIWEKVLEIAQEKLSAVSYSTFLKDTELYTIKDGEAIVLSSIPFNANWLNQQYAEIIQAILFDVVGYEVKPHFITTEELANYSNNETATPKETTKPSTETTEDNHVLGREQFNAHNTFDTFVIGPGNRFPHAASLAVAEAPAKAYNPLFIYGGVGLGKTHLMHAIGHHVLDNNPDAKVIYTSSEKFTNEFIKSIRDNEGEAFRERYRNIDVLLIDDIQFIQNKVQTQEEFFYTFNELHQNNKQIVISSDRPPKEIAQLEDRLRSRFEWGLIVDITPPDYETRMAILQKKIEEEKLDIPPEALNYIANQIQSNIRELEGALTRLLAYSQLLGKPITTELTAEALKDIIQAPKSKKITIQDIQKIVGQYYNVRIEDFSAKKRTKSIAYPRQIAMYLSRELTDFSLPKIGEEFGGRDHTTVIHAHEKISKDLKEDPIFKQEVENLEKEIRNVLEHHHHHH”, the “soluble on expression in E. coli” value is recorded as “soluble”.

Consider “MSEKGFSGGCQCGAVRFHAGKLGRPSICHCRMCQKHFGNFFGALVTADQAHLAWTRGQPTLFRSSARIHRGFCNKCGTPLTYHYPGGVEIAIGAFDHPEQIEPQAQVNIHKRMPWIEQLFSKPAIEQSVDEAEITSYQHPDHDTATWPPEGP”, for which the “soluble on expression in E. coli” value is listed as “not soluble”.

On to “MSEKLQKVLARAGHGSRREIESIIEAGRVSVDGKIAKLGDRVEVTPGLKIRIDGHLISVRESAEQICRVLAYYKPEGELCTRNDPEGRPTVFDRLPKLRGARWIAVGRLDVNTCGLLLFTTDGELANRLMHPSREVEREYAVRVFGQVDDAKLRDLSRGVQLEDGPAAFKTIKFSGGEGINQWYNVTLTEGRNREVRRLWEAVGVQVSRLIRVRYGDIPLPKGLPRGGWTELDLAQTNYLRELVELPPETSSKVAVEKDRRRMKANQIRRAVKRHSQVSGGRRSGGRNNNGLEHHHHHH”, for which the “soluble on expression in E. coli” value is reported as “not soluble”.

Turning to “MSEKTMRVQDYPLATRCPEHILTPTGKPLTDITLEKVLSGEVGPQDVRISRQTLEYQAQIAEQMQRHAVARNFRRAAELIAIPDERILAIYNALRPFRSSQAELLAIADELEHTWHATVNAAFVRESAEVYQQRHKLRKGS”, the “soluble on expression in E. coli” value is “soluble”.

In the case of “MSELMQAILDSEEKHDLRGFISELRQQDKNYLLRNDILNVYAEYCSKCQKPETSYKFSNLSKLIYYTQEIIQEDSNFCFIIRPKIAAQEVYRLTADLDVEPMTVQELLDLRDRLVNKFHPYEGDILELDFGPFYDYTPTIRDPKNIGKGVQYLNRYLSSKLFQDSQQWLESLFNFLRLHNYNGIQLLINHQIQSQQQLSQQVKNALNFVSDRPNDEPYEQFRLQLQTMGFEPGWGNTASRVRDTLNILDELIDSPDPQTLEAFISRIPMIFRIVLVSAHGWFGQEGVLGRPDTGGQVVYVLDQAKNLEKQLQEDAILAGLEVLNVQPKVIILTRLIPNSDGTLCNQRLEKVYGTENAWILRVPLREFNPKMTQNWISRFEFWPYLETFAIDSERELLAEFQGRPDLIVGNYTDGNLVAFLLTRRMKVTQCNIAHALEKSKYLFSNLYWQDLEEKYHFSLQFTADLIAMNAANFVISSTYQEIVGTPDSIGQYESYKCFTMPELYHVVNGIELFSPKFNVVPPGVNENSYFPYTQTQNRIESDRDRLEEMLFTLEHHHHHH”, the “soluble on expression in E. coli” value was “not soluble”.

In the case of “MSELRKLELERKKQKLAELKSQRKREEDARVQNLLRSTNENGTTQNGTSRQTLSSNEVEDILRQVGISTEPTVREESPAPPPGSHSDNHVDPSASHPRISNLLSVDLEFSSVQTACTDNKDSAIYSKGTQTDDERISVGEFSLGSQEFDYDDDMIMPMDHGQFRGRAHSHDQDSPLPYNEEIAKLLGQTKQGDKGLTRQETEEKKTQTVQIVPPLSDEEKYRLTLDPEFLDSFNRSCKVISRALNEEIDICINYTKDPYEKAIASDDLLHLAQVYQDETWTAKRLVTGMAFSEHYPDLLAVSYGPCDIPNEPPGVIVVWNTKSKRMTAEFIVYCQSEIQSVAFARFHAHLLLAGCESGQICVWDNRLTSRKLPINRSPLTTQAHTYTVSCLAVVGTKNAHNFVSLSRDGRICSWNVDNLTQPVDGKELMTKEGKAASATRMSFPIGEMQTFVVGTDTGEILAASRNGADPAVIKTDVCYKGHSGTLTGIEFHRASGVVDFSHLFISSSHDWTVKLWSTKDANLKFSFESHPDLVLDVAWSPVHPAVFASIDADGNIFVWNLNEDVEGPVARLRAGAEGESVYMNRLIWSPDGKHVFVGDDEGRVHMYDVRESLYVLKSEEWNRFARVLSDMKQSNEEAENYNM”, the “soluble on expression in E. coli” value is given as “not soluble”.
